Laboratory results: patent US20100279930A1 (published 2010)
Like-named read-outs stand apart in the source and are kept apart here.

Columns and labels:
human Y4 receptor [1] = molecular target: T1, human Y4 receptor (human, UniProt P50391 1-375); assay: 125I-PP displacement
human Y4 receptor [2] = molecular target: T1, human Y4 receptor; assay: 125I-PP displacement; remark: listed apart in the source

T1 sequence (P50391 whole entry): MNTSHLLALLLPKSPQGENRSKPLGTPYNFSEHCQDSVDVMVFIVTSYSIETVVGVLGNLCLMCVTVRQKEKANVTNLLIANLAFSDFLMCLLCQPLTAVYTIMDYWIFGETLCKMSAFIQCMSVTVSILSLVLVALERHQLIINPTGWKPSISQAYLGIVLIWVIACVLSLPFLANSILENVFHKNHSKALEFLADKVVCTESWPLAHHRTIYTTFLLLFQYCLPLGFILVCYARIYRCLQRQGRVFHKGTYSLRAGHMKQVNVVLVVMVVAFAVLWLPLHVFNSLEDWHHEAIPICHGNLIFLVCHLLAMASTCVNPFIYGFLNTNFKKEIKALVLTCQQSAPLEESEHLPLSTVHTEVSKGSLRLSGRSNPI

| Binder | IC50 (human Y4 receptor [1]) | IC50 (human Y4 receptor [2]) |
| --- | --- | --- |
| APLEPFYPGDNATPEQMAQYAAELRRYINMLTRPRY [6829] | 0.2 nM | – |
| KPLEPVYPGDNATPEELNRYYASLRRYINMLTRPRY [compound of SEQ ID NO:72 (code 6674)] | 0.076 nM | – |
| APLEPVYPGDNATPEELVKYYIELRRYINMLTRPRY [6851] | 0.11 nM | – |
| HAPLEPVYPGDNATPEELNHYYASLRRYINMLTRPRY [6859] | 0.15 nM | – |
| APLEPVYPGDDATPEELNHYYSALRRYINMLTRPRY [6841] | 0.16 nM | – |
| APLEPFYPGDNATPEQMAQYAAALRKYINMLTRPRY [6809] | 0.21 nM | – |
| PAPLEPVYPGDNATPEELVKYYSALRRYINMLTRPRY [6861] | 0.1 nM | – |
| APLEPVYPGDDATPQQMARYAAELRRYINMLTRPRY [6815] | 0.13 nM | – |
| AAPLEPVYPGDNATPEQMAQYAADLRKYINMLTRPRY [6668] | 0.28 nM | – |
| APLEPVYPGDNATPEQMAQYAAELRRYINMLTRPRY [6823] | 0.13 nM | – |
| AAPLEPVYPGDNATPEELVKYYSALRRYINMLTRPRY [6862] | 0.11 nM | – |
| APLEPMYPGDYATPEQMAQYETQLRRYINTLTRPRY [6803] | 0.2 nM | – |
| HAPLEPFYPGDDATPQQMAHYAAELRRYINMLTRPRY [7146] | – | 0.149 nM |
| APLEPVYPGDNATPEQNLAHYAAELRRYINMLTRPRY [7164] | – | 0.223 nM |
| PLEPVYPGDNATPEELVKYYSALRRYINMLTRPRY [7101] | – | 0.069 nM |
| APLEPVYPGDNATPEEINRYYSALRRYINMLTRPRY [7121] | – | 0.12 nM |
| APLEPVYPGDNATPEQMAQYAAALRRYINKLTRPRY [compound of SEQ ID NO:167 (code 7214)] | – | 0.106 nM |
| APLEPVYPGDNATPEELVHYYSALRHYINMLTRPRY [7105] | – | 0.15 nM |
| PAPLEPEYPGDDATPQQMAHYAAELRRYINMLTRPRY [7150] | – | 0.169 nM |
| GAPLEPVYPGDNATPEQMAHYAAELRRYINTLTRPRY [7159] | – | 0.165 nM |
| PAPLEPVYPGDNATPEELVKYYSALRRYINMLTRHRY [7114] | – | 0.166 nM |
| PAPLEPFYPGDDATPQQMAHYAAELRRYINMLTRPRY [7145] | – | 0.165 nM |
| APLEPVYPGDNATPEELVKYYSALRRYINMLTRHRY [7113] | – | 0.084 nM |
| PAPLEPVYPGDNATPEELVKYYASLRRYINMLTRPRY [7110] | – | 0.11 nM |
